Test results published in article PMC2795851.
Where “and” joins values, the source holds several entries; their conditions need not be identical. Equal entries are not always repeated.

Biological target: sfpCHIR-AB1, soluble fusion protein of the extracellular region of CHIR-AB1 and human IgG-Fc (chicken)
Assay: SPR; 90RU of purified sfpCHIR-AB1 immobilised on a CM5 sensor surface; purified IgY-Fc (Fcυ2–4) mutants 25–400 nM flowed over; Biacore 3000; 1:1 binding model

| Substance | Ka | koff | kon |
| --- | --- | --- | --- |
| chicken IgY-Fc (Fcυ2–4) R490E (domain or fragment) | 4.5e+08 M⁻¹ | 0.00051 s⁻¹ | 230000 M⁻¹ s⁻¹ |
| chicken IgY-Fc (Fcυ2–4) R496E (domain or fragment) | 1.8e+08 M⁻¹ | 0.0013 s⁻¹ | 220000 M⁻¹ s⁻¹ |
| chicken IgY-Fc (Fcυ2–4) H495E (domain or fragment) | 1.1e+08 M⁻¹ | 0.0015 s⁻¹ | 170000 M⁻¹ s⁻¹ |
| chicken IgY-Fc (Fcυ2–4) N376D (domain or fragment) | 2e+08 M⁻¹ | 0.0021 s⁻¹ | 410000 M⁻¹ s⁻¹ |
| chicken IgY-Fc fragment containing heavy chain constant domains 2, 3 and 4 (Fcυ2–4), wild type (domain or fragment) | 2.1e+08 M⁻¹ and 1.4e+08 M⁻¹ | 0.0012 s⁻¹ and 0.0021 s⁻¹ | 300000 M⁻¹ s⁻¹ and 260000 M⁻¹ s⁻¹ |
| chicken IgY-Fc (Fcυ2–4) S346D/C347P/S348R/P349G (domain or fragment) | 9.5e+07 M⁻¹ | 0.0044 s⁻¹ | 420000 M⁻¹ s⁻¹ |
| chicken IgY-Fc (Fcυ2–4) R556E (domain or fragment) | 9.3e+06 M⁻¹ | 0.0011 s⁻¹ | 11000 M⁻¹ s⁻¹ |
| chicken IgY-Fc (Fcυ2–4) F557R (domain or fragment) | 7.3e+07 M⁻¹ | 0.013 s⁻¹ | 920000 M⁻¹ s⁻¹ |
| chicken IgY-Fc (Fcυ2–4) E437H/L440R (domain or fragment) | 1.8e+08 M⁻¹ | 0.0021 s⁻¹ | 380000 M⁻¹ s⁻¹ |
